What was measured:
[1] = test system: C. difficile R20291 biofilm; assay: DNase, RNase and proteinase K digests of biofilm in liquid culture; settings: 15 minutes at the concentrations indicated (FIG. 8)
[2] = test system: C. difficile 630Δerm biofilm; assay: DNase, RNase and proteinase K digests of biofilm (floc) in liquid culture
[3] = test system: C. difficile strain 630Δerm; assay: Inhibition of biofilm formation in TC flasks; settings: 10 mg/ml in the growth media; incubated statically for six days (FIG. 9)
[4] = 1 mg/ml, 15 minute treatment, room temperature

Molecule	Degradation of the biofilm [1]	Degradation of the biofilm (floc produced in static culture) ([2]; 100 ug/ml, 15 minute treatment, room temperature)	Degradation of the biofilm (floc produced in static culture) [2, 4]	Formation of biofilm in liquid media [3]	Degradation of the biofilm (floc produced in static culture) ([2]; concentration increased to 2 mg/ml proteinase K (data not shown))	Degradation of the biofilm (floc produced in static culture) ([2]; incubation time increased to 24 hours (data not shown))
RNase: RNaseA enzyme used to digest biofilm constituents (protein, UniProt P61823 27-150, looked up) Ribonuclease pancreatic: KETAAAKFERQHMDSSTSAASSSNYCNQMMKSRNLTKDRCKPVNTFVHESLADVQAVCSQKNVACKNGQTNCYQSYSTMSITDCRETGSSKYPNCAYKTTQANKHIIVACEGNPYVPVHFDASV	only degraded by DNase treatment	did not disrupt the biofilm	did not disrupt the biofilm	–	–	–
proteinase K: a proteinase used to digest biofilm constituents (protein, UniProt P06873 106-384, looked up) Proteinase K: AAQTNAPWGLARISSTSPGTSTYYYDESAGQGSCVYVIDTGIEASHPEFEGRAQMVKTYYYSSRDGNGHGTHCAGTVGSRTYGVAKKTQLFGVKVLDDNGSGQYSTIIAGMDFVASDKNNRNCPKGVVASLSLGGGYSSSVNSAAARLQSSGVMVAVAAGNNNADARNYSPASEPSVCTVGASDRYDRRSSFSNYGSVLDIFGPGTSILSTWIGGSTRSISGTSMATPHVAGLAAYLMTLGKTTAASACRYIADTANKGDLSNIPFGTVNLLAYNNYQA	only degraded by DNase treatment	–	partial degradation with proteinase K was not observed	decreases biofilm formation	partial degradation	partial degradation

Reference: patent publication US10039812B2, “Therapeutic for treating clostridium difficile infection” (priority 2012, dated 2018)
